Measured values as given in patent publication US20230340152A1 (published 2023).

Key:
[1] = molecular target: T1, Human CD73 on cells (MDA-MB-231, Jurkat CD73 knock-in, NCI-H322) (human, UniProt P21589 27-549); assay: flow cytometry, Jurkat (CD73 knock-in) / Jurkat
T1 construct: GPI-anchored native protein; also called native human CD73
T1 sequence: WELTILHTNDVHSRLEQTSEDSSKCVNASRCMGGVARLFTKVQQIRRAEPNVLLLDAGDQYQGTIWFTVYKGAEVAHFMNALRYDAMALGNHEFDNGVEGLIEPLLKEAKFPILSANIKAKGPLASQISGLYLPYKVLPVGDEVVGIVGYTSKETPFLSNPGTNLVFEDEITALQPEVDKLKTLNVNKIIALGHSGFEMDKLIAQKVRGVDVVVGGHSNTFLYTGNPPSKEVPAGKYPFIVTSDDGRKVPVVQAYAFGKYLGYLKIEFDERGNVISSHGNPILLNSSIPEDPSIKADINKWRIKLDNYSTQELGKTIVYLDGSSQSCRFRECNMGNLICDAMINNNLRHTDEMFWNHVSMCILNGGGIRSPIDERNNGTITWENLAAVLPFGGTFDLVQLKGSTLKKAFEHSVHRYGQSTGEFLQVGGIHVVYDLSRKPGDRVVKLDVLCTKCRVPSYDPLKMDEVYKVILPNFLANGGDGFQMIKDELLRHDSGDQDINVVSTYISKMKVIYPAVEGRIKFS

[2] = molecular target: T2, Human CD73 V144K, His-tagged (human, UniProt P21589 27-549); assay: SPR (ProteOn), CD73 variant immobilized on HTG chip
T2 sequence: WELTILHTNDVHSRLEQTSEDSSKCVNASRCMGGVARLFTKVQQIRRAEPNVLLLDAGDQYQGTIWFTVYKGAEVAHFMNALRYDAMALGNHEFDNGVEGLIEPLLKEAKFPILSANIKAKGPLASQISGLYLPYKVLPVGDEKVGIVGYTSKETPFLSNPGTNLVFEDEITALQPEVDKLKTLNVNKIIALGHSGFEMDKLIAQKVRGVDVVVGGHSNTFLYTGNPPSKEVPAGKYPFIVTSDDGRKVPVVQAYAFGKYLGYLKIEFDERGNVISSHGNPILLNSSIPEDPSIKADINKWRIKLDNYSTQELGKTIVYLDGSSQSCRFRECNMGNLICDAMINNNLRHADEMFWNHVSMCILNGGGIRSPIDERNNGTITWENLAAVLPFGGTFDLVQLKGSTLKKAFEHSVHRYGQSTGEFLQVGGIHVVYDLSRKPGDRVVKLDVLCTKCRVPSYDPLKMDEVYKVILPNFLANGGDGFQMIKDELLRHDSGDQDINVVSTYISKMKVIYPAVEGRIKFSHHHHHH
Protocol: (§1) Binding of MEDI9447 to wild-type and mutant CD73 proteins was measured by surface plasmon resonance (SPR) using a ProteOn instrument (BioRad). CD73 crude cell supernatant protein samples were diluted to 3 µg/ml in PBS, 0.005% Tween-20, pH 7.4 (BioRad) and immobilized to ~400 RU on a HTG tris-NTA sensor chip (BioRad) pre-activated with 10 mM NiSO₄, 10 mM MES, pH 6.0 (BioRad). An equivalently diluted crude cell supernatant sample from non-transfected cells was included as a reference channel control. Sensorgrams were recorded by flowing two-fold dilutions of MEDI9447 prepared in PBS, 0.005% Tween-20, pH 7.4, ranging from 5 nM to 0.31 nM. […] Antibody binding was measured at a flow rate of 100 µL/min with a 3 min association phase and 20 min dissociation phase. The sensor chip surface was regenerated between each run by an 800 s injection of 300 mM EDTA, pH 8.5 (BioRad) at a flow rate of 30 µL/min. Binding kinetics were analyzed using the ProteOn data analysis software. Double referencing was performed and, unless noted otherwise, a 1:1 Langmuir binding model was utilized to fit the data. Some CD73 variants containing mutations within the amino acid region 171-188 fit poorly to a 1:1 model (i.e., Chi² values >10% of Rmax). Where noted, these variants were fit with a heterogenous antigen (2:1) model. […] Due to the assay format (antigen immobilized) and the dimeric state of CD73, KD values may be exaggerated due to avidity effects. However, it is not anticipated that this impacts ranking of MEDI9447 binding to the different CD73 variants.

[3] = molecular target: T3, Human CD73 K180A, His-tagged (human, UniProt P21589 27-549); assay: as above
T3 sequence: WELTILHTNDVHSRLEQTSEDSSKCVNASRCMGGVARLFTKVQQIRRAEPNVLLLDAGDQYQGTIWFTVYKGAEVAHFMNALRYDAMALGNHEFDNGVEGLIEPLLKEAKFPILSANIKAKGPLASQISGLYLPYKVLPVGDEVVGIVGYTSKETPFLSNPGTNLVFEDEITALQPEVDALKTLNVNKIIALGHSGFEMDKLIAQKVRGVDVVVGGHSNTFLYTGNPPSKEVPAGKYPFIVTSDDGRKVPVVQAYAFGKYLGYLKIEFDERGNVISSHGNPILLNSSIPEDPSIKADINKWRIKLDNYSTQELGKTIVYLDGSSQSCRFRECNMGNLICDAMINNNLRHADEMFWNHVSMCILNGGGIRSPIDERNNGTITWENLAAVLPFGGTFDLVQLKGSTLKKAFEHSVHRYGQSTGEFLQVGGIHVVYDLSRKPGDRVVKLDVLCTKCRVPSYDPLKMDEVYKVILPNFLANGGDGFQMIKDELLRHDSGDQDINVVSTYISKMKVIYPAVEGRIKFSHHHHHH
Protocol: as §1

[4] = molecular target: T4, Human CD73 K180A+N185G, His-tagged (human, UniProt P21589 27-549); assay: as above
T4 chain: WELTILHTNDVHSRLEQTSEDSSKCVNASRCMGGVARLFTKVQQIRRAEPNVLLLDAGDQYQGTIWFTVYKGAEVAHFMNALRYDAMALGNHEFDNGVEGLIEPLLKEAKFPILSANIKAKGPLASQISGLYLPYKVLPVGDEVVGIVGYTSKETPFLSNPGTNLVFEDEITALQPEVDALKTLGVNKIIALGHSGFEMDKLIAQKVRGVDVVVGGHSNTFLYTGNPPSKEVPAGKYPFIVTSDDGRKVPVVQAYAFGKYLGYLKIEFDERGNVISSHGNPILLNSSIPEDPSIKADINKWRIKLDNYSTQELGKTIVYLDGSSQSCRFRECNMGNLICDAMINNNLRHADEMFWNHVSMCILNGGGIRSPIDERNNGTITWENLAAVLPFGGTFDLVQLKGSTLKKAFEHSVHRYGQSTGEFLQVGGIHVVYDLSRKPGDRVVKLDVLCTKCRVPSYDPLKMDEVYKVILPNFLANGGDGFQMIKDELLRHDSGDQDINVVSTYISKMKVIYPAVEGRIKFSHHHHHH
Protocol: as §1

B1: MEDI9447 (antibody, human IgG1, lambda, V domains shown)
VH: EVQLLESGGGLVQPGGSLRLSCAASGFTFSSYAYSWVRQAPGKGLEWVSAISGSGGRTYYADSVKGRFTISRDNSKNTLYLQMNSLRAEDTAVYYCARLGYGRVDEWGRGTLVTVSS
VL: QSVLTQPPSASGTPGQRVTISCSGSLSNIGRNPVNWYQQLPGTAPKLLIYLDNLRLSGVPDRFSGSKSGTSASLAISGLQSEDEADYYCATWDDSHPGWTFGGGTKLTVLG
notes: Human IgG1-TM (L234F, L235E, P331S), lambda light chain; also called clone 10.3 antibody; 73combo3
- Mean Fluorescence Intensity Ratio (MFIR) [1]: 7.9
- koff [2]: 9.18e-05 s⁻¹
- kon [2]: 1.13e+06 M⁻¹ s⁻¹
- koff [3]: 0.000154 s⁻¹
- kon [3]: 3.45e+06 M⁻¹ s⁻¹
- binding result [4]: no binding
